From patent publication US20230270832A1 (TSCAN THERAPEUTICS, published 2023)

Columns and labels:
… (10) = … (10) (Homo sapiens, UniProt C*07:02); assay: cell-based or functional assay
[1] = target: MAGEA1 peptide VRFFFPSL (SEQ ID NO: 1) presented by HLA-C*07:02 (human); assay: cell-based or functional assay

Binder	EC50 (read off the curve) [left panel '4hr Killing (IFP)'] (… (10)) [ng/mL]	EC50 [table, row MAGEA1, column Peptide EC50] [1] [nM]
MAGEA1 TCR 32-39 (TCR, V domains shown) V domain 1: DQQVKQNSPSLSVQEGRISILNCDYTNSMFDYFLWYKKYPAEGPTFLISISSIKDKNEDGRFTVFLNKSAKHLSLHIVPSQPGDSAVYFCAASAQNNDMRFGAGTRLTVKP V domain 2: NAGVMQNPRHLVRRRGQEARLRCSPMKGHSHVYWYRQLPEEGLKFMVYLQKENIIDESGMPKERFSAEFPKEGPSILRIQQVVRGDSAAYFCASSPSYEQYFGPGTRLTVTE	~8	–
MAGEA1 TCR 32-41 (TCR, V domains shown) V domain 1: QLLEQSPQFLSIQEGENLTVYCNSSSVFSSLQWYRQEPGEGPVLLVTVVTGGEVKKLKRLTFQFGDARKDSSLHITAAQPGDTGLYLCAGDESISYGKLTFGQGTILTVHP V domain 2: DAGVIQSPRHEVTEMGQEVTLRCKPISGHDYLFWYRQTMMRGLELLIYFNNNVPIDDSGMPEDRFSAKMPNASFSTLKIQPSEPRDSAVYFCASSFLGWNEKLFFGSGTQLSVLE	–	~0.25
